# Assay results taken from a protein production outcome set (Wang et al. 2014).
# Experiment: label from the status in PepcDB records
row,Sequence,protein production
1,MSTGATIVIDLGKTLSKVSLWDLDGRMLDRQVRPSIPLEIDGIRRLDAPDTGRWLLDVLSRYADHPVTTIVPVGHGAGIAALTDGRLAFPPLDYEQSIPEAVMADYRSQRDPFARTGSPALPDGLNIGSQLWWLDQLHPDVMANATLLPWAQYWAWFLTGRAVSEVTSLGCHSDLWDPQDGDFSPMAKRLGWAARFAPIVRAGDTVGALLPAIAERTGLSPDVQVLAGLHDSNAALLAARGFAEIADNEATVLSTGTWFIAMRLPATPVDTATLPEARDCLVNVDVHGRPVPSARFMGGREIETLIEIDTRRVDIKPDQPALLAAVPEVLRHGRMILPTLMRGFGPYPHGRFAWINRPEDWFERRAAACLYAALVADTALDLIGSTGRILVEGRFAEADVFVRALASLRPDCAVYTANAHNDVSFGALRLIDPGLRPQGELVRIEPLDTGSWADLDTYRNRWQAEVEAAKVEPITLEHHHHHH,not failed
2,MSTLISTPRTKMSPIRAEDWALFQRLHIEPSVISLCFDKPDERVLRDKFESRLASWTPECDHWLCLTIFDANTQQPIGITGFVLEEDKAEVGYLLLPEFHGQQFGTETLNALLHWAETTHDILRFSATVTEGNVASERVLTKCGFELSQVIPDAYQIGGKHYADKIYSRQK,failed
3,MSTNEITKRLPNLTSRRALLLYSLPVLVAIGVSHSLKESSLTKTIALNLPESQVVERILDATTAEVVTPPNFEYQIQAGDNLSTIFSQLGFGYSSLMKVMETDLNYLALDTLKPGNTLRFWRNDATGELEKMELQFSIADKVVYQLNSDGGYDFTDISIPGVWRQEPLVGVIQGSFSSSANRLGLSSAEISQVVSLLKEQVNFGRDLRAGDRFEVVRRSQTINGVSTGKNEIEAIKIYNRGREITAYLHTDGQFYNAKGESLQRAFQRYPVSRSWRISSGFNPNRLHPVTGRVAP,failed
4,MSTPIDTYWRLRLTEVAESLRANNFAVSLVDSCEEAGRVFLDDLLPASGASSVSFGGSMTLVKCGVPEALRQRADLQLLDTFDKNLSAAEMYERRRQSLLVDMFLTGTNAVTMDGKLINLDMIGNRVGAINFGPRNVVLFVGRNKVVDTVEDGMRRIKEYASPVNAIRLDKKTPCKKTAQCMDCKSPDRICNVWTITEKCFPSGRVHVILINEDAGY,failed
5,MSTPRQILAAIFDMDGLLIDSEPLWDRAELDVMASLGVDISRRNELPDTLGLRIDMVVDLWYARQPWNGPSRQEVVEQVIARAISLVEETRPLLPGVREAVALCKEQGLLVGLASASPLHMLEKVLTMFDLRDSFDALASAEKLPYSKPHPQVYLDCAAKLGVDPLTCVALEDSVNGMIASKAARMRSIVVPAPEAQNDPRFVLANVKLSSLTELTAKDLLG,not failed
6,MSTPYRPAMHHAWRLLPLGMAVASPLLAAEPLNLDAVNVTGFSEQESASDYRAGRASIYGLDQALLLDTPASVSVFSEALIKDRQAKLLSDVLRNDASVGEGYAPVGYYENFVVRGFSLNAANSYRINGRSIAGEQNVALENKQQVELLKGLSGLQSGVSEPGGVINYQTKRAQD,failed
7,MSTQENVQIVKDFFAAMGRGDKKGLLAVSAEDIEWIIPGEWPLAGTHRGHAALAALLQKASEMVEISYPEPPEFVAQGERVLVVGFATGRVKSTNRTFEDDWVFAITVRKSKVTSIREYIDTLALARATNFNAT,not failed
8,MSTRPERERASTSTDAVLQATVALSAGHKPAFRGFVKDPPRARAHAAAMFVSNAREAEPFVAPDLSEIRVLVDRATVGVASVSLAHATVAAGAETVWHRLQATDEIYFVLSGRGLVSVGDESGEVGPGDAVWIPAGVPQKIRALGSVPLTFLCAWGPAYLPERDQRMGEAAVIGAWPLEHHHHHH,not failed
9,MSTVEKIQTFIILFAVTCGIVLGQFHLIHMYSEQFIVPFLFFMLYGLFLSIPLKEIKNGFRNLKFAGTSLTINFLWTPLLAWGLGALFLSDHPALWVGFIMLMVTPCTDWYLIFTEIAKGNVALSTAILPVNLILQVLLLPIYLFLFAGVMKTVAVSVLVESIVIVIVLPFLLAHATKFIMNKLKKAETLENKLIPFFSSAQIVFLSLAIVAMFASQGKYLLQNMNVVLLLLIPVLLFFIINFVLGQFIGRVMRLSYKDTVSLNLTTLARNSPVALAIAVTAFPNEPLIALALVIGPLIELPVLACVSQVLLLIKKKKQYT,failed
10,MSTVNNHRVVIRRRKVRRGGHHGGSWKIAYADFITAMMAFFLVMWLISIVPREELKGIAEYFRMPLRVALTGGPSSSAETSAIPGGGQDPLRSQGDVRRAEGNRVEAQPMGDAERRDRHRLERLKVRLENLIEESPVLKNFRPQLLIDMTTEGLRIQIVDNQNRPMFATGSADVQPYMRDILRELGPVLNDLPNKISIAGHTDASQYARGERAYSNWELSADRANASRQELVAGGMHEGKVLRIQGLASSMSLVKDDPFAAVNRRISLVVLNASTQRRIENENAAAADVNARDAQGVGAALAGQLAASGSDGGAR,failed
11,MSVCTAHHPMTSPLPPFPLQQRLSRRTLLRFITHTAGIALLNPIGLAQSAPRAGKPPASSSDFISRRPPQAQRRFVSAAVEQQLIHIKAKIADPELAWLFENCYPNTLDTTVSTGTRNGKPDTFIITGDIQALWLRDSAAQVQAYVPLARHDPALRRLFHGLIQRHAACIRLDPYANAFLPDGVSHPLKWSVNDVTQMQPGIGERKWEIDSLCYPIRLAHAYWRASDDIAPFDEDWRQAMHIVLRTFGEQQRLQTPGPYTFQRPALRATETLMLEGYGAPTRPNGMLHSMFRPSDDACTYPLSVPENLFAVITLRQLAAMSEAIHHDAAFASQCRSLAHEIAQATQQFGLMHDADNHPFWAYEVDGYGNQLFMDDANAPSLLSLAYLGCCTSTDPVFLRTRDLAWSARNPYFCQGRAAVGVGSPHTGRHTIWPMSLIHYALSSHDDTQIQHCLHWLKTTHAGTGFMHEAFHQDDPSTFTRSWFAWANSLFGELIVDLAQRKPHLLGVNRSAALLHG,failed
12,MSVDIVHLADSELGKIVALLATSITIVPLFKRLGLGSVLGYLVAGCLIGPSVLGLFQNPQSIVHMAELGVVMFLFIIGLEMHPELLWSMRKAIFGRGFLQVLTCGTLLTFAGIHLIGLTTAVAFVVGAGFTLSSTAIVMQVLEDKGISSAPKGQRIVSTLLFEDLAIVPLLASMTFLAPSTEGATTGINSAAISIAVIGIIILVASSKWIMNPLFRMISKAKVREMMTAAALLVVLGAALLMELSGLSMAMGAFVAGVMLSESSFRHQLEADIEPFRGLLLGLFFMGVGMSLDLKFVFDDLFLLLSLVVILVLGKAISVYVIGLLTLLSHREALMRMSIMSHGGEFAFVLFSAAAAVGILDEDQQATFTAAVIISMLLSPLVVLMVQRIMTRKAKPEAPSMAGIEVAEDLENSVIVIGFGRFSQIVCQILLARGITVTVIDANTDRIRAAARFGFKVYYGDGTRLDVLRASGLAKADCVVLGINDPTRSASIVEQIKHEFPLMPIFARTYDRYSAIQLTKLHVDFQIRETFESALVLSKATMMKLGIDEVEALEVIESVRVLDKERFKEELIYGTSAELIRKYFTPKPLVKPQQPAEALNEYAAEILAETDESQHCQDNLNKKADV,failed
13,MSVEPTSVDPSPDKSAPANASGRADASARPSTGESARPSGGETPEVLRPHAEVTFAAELAALAAQDDRPRPVRWRLSPWAVATYLLGGTLPDGTVITPKYVGPRRIVEVAVTTLATDRALLLLGVPGTAKTWVSEHLAAAVSGDSTLLVQGTAGTPEEAIRYGWNYAQLLAHGPSRDALVPSPVMRAMADGMTARVEELTRVPADVQDTLITILSEKTLPIPELGQEVQAVRGFNLIATANDRDRGVNELSSALRRRFNTVVLPLPESADAEVDIVSRRVDQIGRSLDLPAVPDGVDEIRRVVTVFRELRDGVTTDGRTKLKSPSGTLSTAEAISVVTNGLALAAHFGDGVLRASDVAAGILGAVVRDPAADRVIWQEYLEAVVRERDGWMDFYRACREVSALEHHHHHH,not failed
14,MSVFMDLNIINSSDKNRLKHIIETAAHLGYSTVAINYVVEPLQKKQEIPNPQSISDLFDKFPVVQGKSSPIKVLNRLTIVASDASHFRPTNEYKKFDLVAVYPKTEKLFHAACMTFDVDIICIAVTEKQPFHFKRAPVNGAIDRGIFFETCYAAAIRDSITRRYTIANAICLMEICKGKNVIVSSGAERQLELRGPYDIANLGLVFSLSEGDAKAAVSTNCRSVLLHGETRATASGVIHTMKKPQILQKEEEETPAAKKARTELA,failed
15,MSVHHAERFLPFSDLQMFTLVADVERYPQFVPWWIAARVIDSRPAPAGDGPDAKIYRTDQVIGMGPVRLRFTSRTLLVSPRRISVASQGGGPVRDLSLDWWFDAQPGGCLTRLDMTLDLGSRSLENLLAGMSSEAAVKLVDAFERRAHALYQGG,failed
16,MSVIKLKSKLKYCHYAYDDEGYVIHMLTSNERTFFTNAYIIETKNSIVVVDTLMVNSDAILLRQYMDNINKPLIAVIITHGHPDHYNGTEIITGFKEVPIISTKGIRDCIQDTVDSKEVKWKPYFGQDWPEHKILPNQLVIDSEVVNLDGLDYSFRDLGAAESSSDLFFTLGEKRSVIFVGDVVFNNMHGFMNDGNSAQWLKVLQKLLTEIADVKLLFTGHGDPGDTHQLVQRQIDYISHYRSNLLAIIRGNQLLNDTQKQSFEQLMMANYPEFQLSSFIKAGIDAVSQELIVEQNDKP,failed
17,MSVKSVLVFLSVSGSTMPMLILESDSIAEVKLRIQTCNGFRVRRQKLVFSGRELARNASRVKDYGVTGGSVLHLVLKLYDP,failed
18,MSVLSIVTVPDKRLSLCSEEVEKVDQSIRKLVDDMFETMHANQGLGLAAVQVGVHKRILVMNVPEEFEDSEDIENVEDKIEGYELYGGPYCIINPKIVDISQEKVKLKEGCLSVPGYFDYIVRPQRIAVQYLDYNGNECIIKAQGWLARCLQHEIDHLNGTVFLKYLSKFKRDFAIEKVKKKERTDLI,not failed
19,MSVPQGARDVEAIRAIGPDQWQTVPAGQTLNRGFSDDEFWLQVRVPAQPANRVLEVGYPLLDEVSVYWELDGRIIESHHTGDTRPFDSRPIVHRNFVFLVPSNTEPVTAWIRVQTQGSVQVPVAVTPSAEFLANEQISYGWQTMFLGIVVALALYNLFLFLIVRHQTYLWYVLTVVCSGAVQLNFNGLLFQWFWPDVPWINRYFTVPVVSAALIAAIVFTMKFLLVKSYSRWGYRILQALLAVNLLGLIYGFLGSYQVGIIWISSLAAFATPVAWLIGINVWRRGQILGGFYVLAWTPLLLGHLVLAVSKLGWIPRSPFTELAPQAGVAVEVILLSFALAYRINMERRRRQQAQEHALDIQRQANLTLESRVRERTEELEQANEQLRAISLTDGLTHVANRRRFDEKLETEWNRALRHEHELSLILLDIDHFKQVNDRFGHLVGDDCLVALASILSDEVQRSGDLVARYGGEEFAILLPTTDVAGAQQVAERMRLSVARTPVNSGEHMSPVSLTISLGVATLTPNRQSDCQELIRRADEALYAAKSDGRNRVVVWHPKAVAPTTG,failed
20,MSVQLSEGQTFGPRAINVTRTTLVRYAGASGDFNPIHYSDRAAREAGMDGVIAHGMWTMGAALGTVIDWVGGPERVVSQRARFTRPVQVPDTEGGTAIEVAATVRKVSEEAATLAVDVKCDGQSVLGRVEVVVRQGEQ,failed
21,MSVQNIVNINESNLQQTLEQSMTTPVLFYFWSERSQHCLQLTPVLESLAAQYHGQFILAKLDCDAEQMIAAQFGLRAIPTVYLFQNGQPVDGFQGPQPEEAIRALLDKVLPREEELKAQQAMQLMQEGNYIDALPLLKDAWQLSSQNSEIGLLLAEAQIALNRSEEAEAVLKTIPLQDQDTRYQGLVAQIELLKQAADTPEIQQLQQQVADNPQDAALATQLALQLHQVGRNEEALELLFSHLRKDLTAAEGQTRKTFQEILAALGTGDALASKYRRQLYALLY,not failed
